# Data published in patent publication US20240301069A1 (GUANGDONG FAPON BIOPHARMA, published 2024).
# T1: human CD86 protein (Acrobiosystem), hCD86 hFc (human, UniProt P42081 26-247, limits assumed)
# T1 construct: Bought; also called B7-2; not shown: human Fc
# T1 sequence (looked up): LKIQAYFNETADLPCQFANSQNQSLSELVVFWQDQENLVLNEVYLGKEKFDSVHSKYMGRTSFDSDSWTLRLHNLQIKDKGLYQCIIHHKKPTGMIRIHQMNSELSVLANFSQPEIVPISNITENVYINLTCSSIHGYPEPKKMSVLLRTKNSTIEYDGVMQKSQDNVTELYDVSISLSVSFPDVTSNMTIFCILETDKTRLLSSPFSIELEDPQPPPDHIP
# T2: human PD-L2 protein (Acrobiosystem), hPD-L2 hFc (human, UniProt Q9BQ51 20-219, limits assumed)
# T2 construct: Bought; also called B7-DC; not shown: human Fc
# T2 sequence (looked up): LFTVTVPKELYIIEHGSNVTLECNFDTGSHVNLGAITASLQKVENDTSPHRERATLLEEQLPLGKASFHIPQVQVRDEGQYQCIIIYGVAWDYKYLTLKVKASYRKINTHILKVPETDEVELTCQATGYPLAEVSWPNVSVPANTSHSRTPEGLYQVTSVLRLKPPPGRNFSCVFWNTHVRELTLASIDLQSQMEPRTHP
# T3: human B7-H3 protein (Acrobiosystem), hB7-H3 hFc (human, UniProt Q5ZPR3-2 29-245, limits assumed)
# T3 construct: Bought; not shown: human Fc
# T3 sequence (looked up): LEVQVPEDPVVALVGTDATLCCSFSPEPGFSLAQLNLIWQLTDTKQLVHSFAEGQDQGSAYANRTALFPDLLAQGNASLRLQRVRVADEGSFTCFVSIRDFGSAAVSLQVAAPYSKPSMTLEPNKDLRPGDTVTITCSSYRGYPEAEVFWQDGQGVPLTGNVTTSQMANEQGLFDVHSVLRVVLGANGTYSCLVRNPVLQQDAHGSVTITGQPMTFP
# T4: human ICOSLG protein (Acrobiosystem), hICOSLGhFc (human, UniProt O75144 19-258, limits assumed)
# T4 construct: Bought; also called B7-H2; not shown: human Fc
# T4 sequence (looked up): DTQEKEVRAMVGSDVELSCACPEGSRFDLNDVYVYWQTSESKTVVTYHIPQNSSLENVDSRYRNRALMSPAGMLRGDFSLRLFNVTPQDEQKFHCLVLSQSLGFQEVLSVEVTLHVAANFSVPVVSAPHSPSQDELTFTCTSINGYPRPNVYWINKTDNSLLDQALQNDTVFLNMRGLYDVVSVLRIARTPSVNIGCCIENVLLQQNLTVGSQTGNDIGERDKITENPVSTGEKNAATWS
# Legend:
# [1] = molecular target: T5, human CD28 protein (Acrobiosystem), hCD28 hFc (human, UniProt P10747 19-152); test: ELISA on coated hCD28 hFc
# T5 construct: Bought; not shown: human Fc
# Protocol: (§1) Supernatant was discarded; a blocking solution (1×PBS+1% BSA) was added in 200 μL/well; and blocking was performed for 1 h at 37° C. […] Washing was performed for 3 times with the 1×PBS. HRP-labeled goat anti-mouse IgG (sigma A0168-1ML) was added in 100 μL/well; incubation was performed for 30 min at 37° C. in a standing manner; and after washing was performed for 3 times with the 1×PBS, a color reaction was performed.
# [2] = molecular target: T1, human CD86 protein (Acrobiosystem), …; test: ELISA on coated hCD86 hFc
# Protocol: as §1
# [3] = molecular target: T2, human PD-L2 protein (Acrobiosystem), …; test: ELISA on coated hPD-L2 hFc
# Protocol: as §1
# [4] = molecular target: T3, human B7-H3 protein (Acrobiosystem), …; test: ELISA on coated hB7-H3 hFc
# Protocol: as §1
# [5] = molecular target: T4, human ICOSLG protein (Acrobiosystem), …; test: ELISA on coated hICOSLG hFc
# Protocol: as §1
# [6] = molecular target: T6, human CTLA-4 protein (Acrobiosystem), hCTLA-4 hFc (human, UniProt P16410 37-162, limits assumed); test: ELISA on coated hCTLA-4 hFc
# T6 construct: Bought; not shown: human Fc
# T6 sequence (P16410 37-162 limits assumed): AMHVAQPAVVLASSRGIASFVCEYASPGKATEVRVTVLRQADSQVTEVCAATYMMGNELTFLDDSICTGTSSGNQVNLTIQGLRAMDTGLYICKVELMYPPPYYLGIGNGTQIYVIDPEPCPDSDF
# Protocol: as §1
# [7] = molecular target: T7, human PD-L1 full-length protein on CHO-hPD-L1 stable cells (human, UniProt Q9NZQ7 19-290); test: flow cytometry, antibody titration on CHO-hPD-L1 cells, MFI-APC
# T7 construct: also called membrane protein PD-L1
# T7 sequence (Q9NZQ7 19-290 limits assumed): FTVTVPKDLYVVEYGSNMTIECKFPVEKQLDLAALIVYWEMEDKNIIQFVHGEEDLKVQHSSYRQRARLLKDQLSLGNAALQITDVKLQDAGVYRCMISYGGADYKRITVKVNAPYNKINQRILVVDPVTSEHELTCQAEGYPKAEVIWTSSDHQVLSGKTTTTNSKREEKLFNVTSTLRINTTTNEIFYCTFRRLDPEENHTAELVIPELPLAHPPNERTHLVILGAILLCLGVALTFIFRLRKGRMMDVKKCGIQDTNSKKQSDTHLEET
# [8] = molecular target: macaque PD-L1 on CHO-cynoPD-L1 stable cells (macaque, UniProt Q9NZQ7 19-290 (human entry)); test: flow cytometry, antibody titration on CHO-cynoPD-L1 cells, MFI-APC
# macaque PD-L1 on CHO-cynoPD-L1 stable cells, sequence (Q9NZQ7 other isoform, or with tags, fused parts or gaps limits assumed): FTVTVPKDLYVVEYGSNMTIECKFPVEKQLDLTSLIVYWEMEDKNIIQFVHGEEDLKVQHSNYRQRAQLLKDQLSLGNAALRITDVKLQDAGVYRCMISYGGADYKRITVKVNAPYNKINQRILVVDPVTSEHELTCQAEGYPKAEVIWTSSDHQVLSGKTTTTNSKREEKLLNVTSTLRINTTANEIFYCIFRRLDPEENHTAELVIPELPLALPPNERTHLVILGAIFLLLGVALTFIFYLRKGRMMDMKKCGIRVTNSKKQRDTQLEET
# [9] = molecular target: T8, human PD-L1 on IFNγ-stimulated A375 cells (human, UniProt Q9NZQ7 19-290); test: flow cytometry, antibody titration on human IFNγ-stimulated A375 cells, MFI-APC
# T8 construct: whole, on cells; PD-L1 of the A375 cells themselves; also called PD-L1 membrane protein
# T8 sequence (Q9NZQ7 19-290): as the sequence (Q9NZQ7 19-290 limits assumed) above
# Protocol: An experimental process included the following.
# 50 ng/mL of the human IFNγ (R&D) was used to stimulate the expression of human PD-L1 on human melanoma cells A375 (Shanghai cell bank) overnight; on the next day, 0.25% pancreatin (Gibco) was used to digest the A375 cells; after washing was performed once with DPBS, live cell density was adjusted to 2E6/mL; and the mixture was added into the 96-well V base plate in 100 μL/well. […] The mixture was added into the cells in 100 μL/well; and incubation was performed on ice for 30 min in a standing manner, then 250×g was taken to perform centrifugation for 5 min, and supernatant was discarded in a sucking manner. After washing was performed for 2 times with the 1×FCM buffer, iFluor™633GAM fluorescent secondary antibodies (ATT bioquest) diluted by the 1×FCM buffer (dilution ratio being 1:400) were added in 100 μL/well; and incubation was performed on ice for 30 min. After 250×g was taken to perform centrifugation for 5 min, supernatant was discarded in a sucking manner. After washing was performed for 2 times with the 1×FCM buffer, the cells were resuspended by adding the 1×PBS in 100 μL/well; and the flow cytometer (Beckman, CytoFLEX) was used for detection.
# [10] = molecular target: T9, human PD-L1 extracellular domain recombinant protein hPD-L1-his (human, UniProt Q9NZQ7 19-238); test: BLI (ForteBIO QKe), hPD-L1-his captured on an anti-Penta-HIS sensor, antibody in solution
# T9 construct: extracellular domain; Home-made; also called human PD-L1 recombinant protein; not shown: his label
# T9 sequence (Q9NZQ7 19-238): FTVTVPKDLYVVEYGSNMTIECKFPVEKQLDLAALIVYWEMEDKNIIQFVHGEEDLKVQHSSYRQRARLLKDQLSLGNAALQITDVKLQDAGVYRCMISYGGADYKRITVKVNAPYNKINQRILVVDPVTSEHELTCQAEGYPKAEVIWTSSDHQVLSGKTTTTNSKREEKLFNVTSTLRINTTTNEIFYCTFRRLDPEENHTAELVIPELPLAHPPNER
# Protocol: An experimental method included the following.
# An equilibration buffer (1×PBS+0.02% Tween20) was used to dilute a home-made human PD-L1 extracellular domain recombinant protein hPD-L1-his carrying a his label, until a final concentration reached 5 μg/mL. […] The whole reaction was undergone at 25° C. and 1000 rpm.
# [11] = molecular target: T7, human PD-L1 full-length protein on …; test: flow cytometry blocking assay: antibody titrated on CHO-hPD-L1 cells; blocked ligand recombinant human CD80-hFc
# [12] = molecular target: T7, human PD-L1 full-length protein on …; test: flow cytometry blocking assay (method 1): antibody titrated on CHO-hPD-L1 cells; blocked ligand recombinant human PD-1-hFc
# Protocol: […] The 1×FCM buffer was used to resuspend the CHO-hPD-L1 cells to the cell density of 2×10E6/mL, and the cells were evenly spread in the 96-well V base plate in 100 μL/well. […] After 250×g was taken to perform centrifugation for 5 min, supernatant was discarded in a sucking manner. After washing was performed for 2 times with the 1×FCM buffer, the cells were resuspended by adding the 1×PBS in 100 μL/well; and the flow cytometer (Beckman, CytoFLEX) was used for detection.
# [13] = molecular target: T10, recombinant human PD-L1 protein carrying a hFc label (human, UniProt Q9NZQ7 19-238); test: flow cytometry blocking assay (method 2): antibody titrated; binding of recombinant human PD-L1-hFc to PD-1 on CHO-hPD-1 cells is blocked
# T10 construct: Self-produced; also called hPD-L1 hFc; PD-L1-hFc; not shown: human Fc label
# T10 sequence (Q9NZQ7 19-238): as above
# Protocol: The 1×FCM buffer was used to dilute the self-produced recombinant human PD-L1 protein carrying hFc, until the concentration reached 2 μg/mL. The 1×FCM buffer was used to resuspend the CHO-hPD-1 cells to the cell density of 2×10E6/mL, and the cells were evenly spread in the 96-well V base plate in 100 μL/well. […] After 250×g was taken to perform centrifugation for 5 min, supernatant was discarded in a sucking manner; after washing was performed once with the 1×FCM buffer, APC-labeled goat anti-mouse Fc fluorescent secondary antibodies (Biolegend) diluted by the 1×FCM buffer (dilution ratio being 1:500) were added in 100 μL/well; and incubation was performed on ice for 30 min. After 250×g was taken to perform centrifugation for 5 min, supernatant was discarded in a sucking manner. After washing was performed for 2 times with the 1×FCM buffer, the cells were resuspended by adding the 1×PBS in 100 μL/well; and the flow cytometer (Beckman, CytoFLEX) was used for detection.
# [14] = molecular target: T2, human PD-L2 protein (Acrobiosystem), …; test: ELISA on coated hFc fusion protein
# Protocol: as §1
# [15] = molecular target: T4, human ICOSLG protein (Acrobiosystem), …; test: ELISA on coated hFc fusion protein
# Protocol: as §1
Binder,binding result [1],binding result [2],binding result [3],binding result [4],binding result [5],binding result [6],EC50 [7] [nM],EC50 [8] [nM],EC50 [9] [nM],Kd [10] [nM],IC50 [11] [nM],IC50 [12] [nM],IC50 [13] [nM],binding result [14],binding result [15]
"F016-21 (antibody, V domains shown, Mouse hybridoma monoclonal antibody purified from clone supernatant; also called anti-human PD-L1 antibody F016-21) VH: EVQLQQSGPELVKPGASVKMSCKASGYTFTDYVMHWVKQKPGQGLEWIGYINPYNDGTKFNEKFKGKATLTSDKSSSTAYMELSSLTSEDSAVYYCAKQTLDYWGQGTSVTVSS VL: DIVLTQSPASLAVSLGQRATISCRASESVEYFGTTLMQWYQQRPGQPPKLLIYAASNVESGVPARFSGSGSGTDFSLNIHPVEEDDIAMYFCQQSRKVPYTFGGGTKLEIKR",no binding (tested: 10 µg/mL),no binding (tested: 10 µg/mL),no binding (tested: 10 µg/mL),no binding (tested: 10 µg/mL),no binding (tested: 10 µg/mL),no binding (tested: 10 µg/mL),0.502,0.947,0.151,0.0566,4.11,5.2,1.18,–,–
"F016-568 (antibody, V domains shown, Mouse hybridoma monoclonal antibody; also called anti-human PD-L1 antibody F016-568) VH: QLQESGPSLVKPSQTLSLTCSVTGDSITSDYWNWIRKFPGNKLEYMGYISYTGSTYYNPSLKSRISITRDTSKNQYYLQLNSVTTEDTATYYCAKQGGWLNAMDYWGQGTSVTVSS VL: not shown",no binding (tested: 10 µg/mL),no binding (tested: 10 µg/mL),no binding (tested: 10 µg/mL),no binding (tested: 10 µg/mL),no binding (tested: 10 µg/mL),no binding (tested: 10 µg/mL),1.25,1.29,0.175,0.101,–,6.9,1.69,–,–

# More lines, in order of falling EC50 [7], values ahead:
binding result [1],binding result [2],binding result [3],binding result [4],binding result [5],binding result [6],EC50 [7] [nM],EC50 [8] [nM],EC50 [9] [nM],Kd [10] [nM],IC50 [11] [nM],IC50 [12] [nM],IC50 [13] [nM],binding result [14],binding result [15],Binder
no binding (tested: 10 µg/mL),no binding (tested: 10 µg/mL),no binding (tested: 10 µg/mL),no binding (tested: 10 µg/mL),no binding (tested: 10 µg/mL),no binding (tested: 10 µg/mL),1.1,0.949,–,0.0742,4.91,5.22,1.61,–,–,"F016-870 (antibody, V domains shown, Mouse hybridoma monoclonal antibody; also called anti-human PD-L1 antibody F016-870) VH: EVQLQESGPSLVKPSQTLSLTCSVTGDSITSGYWNWIRKFPGNKLEYMGYISYTGSTYQNPSLKSRISFTRDTSKNQYYLQLSSVTTEDTATYYCARSRAWIRTYFDYWGQGTTLTVSS VL: EIVLTQSPALMAASPGEKVTITCSVSSSISSSNLHWYQQKSETSPKPWIYGTSNLASGVPVRFSGSGSGTSYSLTISSMEAEDAATYYCQQWSSYPLTFGAGTKLELKR"
no binding (tested: 10 µg/mL),no binding (tested: 10 µg/mL),–,no binding (tested: 10 µg/mL),–,no binding (tested: 10 µg/mL),0.561,–,0.128,0.0098,4.47,4.98,0.993,no binding (tested: 10 µg/mL),no binding (tested: 10 µg/mL),"F016-193 (antibody, V domains shown, Mouse hybridoma monoclonal antibody; also called anti-human PD-L1 antibody F016-193) VH: EVQLQQSGPELVKPGASVKMSCKASGYTFTSYVMHWVKQKPGQGLEWIGYINPHNDGNKYNEKFKGKATLTSDKSSSSAYMELSSLTSEDSAVYYCAKQTMDYWGQGTSVTVSS VL: DIVLTQSPASLAVSLGQRATLSCRASESVEFYGTTLMQWFQQKPGQPPKLLIYAASNVESGVPARFSGSGSGTDFSLNIHPVEEDDIAMYFCQQSRKVPYTFGGGTKLEIKR"
